Assays:
[1] = target: α-Synuclein WT, unlabelled (human) (UniProt P37840); assay: ELISA
[2] = target: α-Synuclein A53T, unlabelled (human) (UniProt P37840); assay: ELISA

| intracellular α-Syn oligomer concentration after 1 day [1] [nM] | intracellular α-Syn oligomer concentration after 3 days [1] [nM] | intracellular α-Syn oligomer concentration after 3 days [2] [nM] | Substance |
| --- | --- | --- | --- |
| 12.3 | 13.1 | – | α-Synuclein WT, unlabelled (from UniProt P37840 1-140) (natural protein) |
| – | – | 16.3 | α-Synuclein A53T, unlabelled (from UniProt P37840 1-140) (natural protein) |
